In the DeepSol protein solubility set:

Test: soluble on expression in E. coli; label from the status in PepcDB or PDB records

Row | Sequence | soluble on expression in E. coli
1 | MKPDAHQVKQFLLNLQDTICQQLTAVDGAEFVEDSWQREAGGGGRSRVLRNGGVFEQAGVNFSHVHGEAMPASATAHRPELAGRSFEAMGVSLVVHPHNPYVPTSHANVRFFIAEKPGAEPVWWFGGGFDLTPFYGFEEDAIHWHRTARDLCQPFGEDVYPRYKKWCDDYFYLKHRNEQRGIGGLFFDDLNTPDFDHCFAFMQAVGKGYTDAYLPIVERRKAMAYGERERNFQLYRRGRYVEFNLVWDRGTLFGLQTGGRTESILMSMPPLVRWEYDYQPKDGSPEAALSEFIKVRDWGLEHHHHHH | not soluble
2 | MSVVISGALTDGAGIPMSGYHIILKSRVNTPEVVMNTVADVMTGNDGEYCFHARTGKYGVYLKQDWRNEYNVGDIAVYEDSKPGTLNDFLIAPDEGDLKPDVVKRFEEMVAQAQQSAGAAAGNAQQTAQDVAAAAGYARAAEQAKNDIDAALTGTLKTANHLSETAAAGEKAQQKSRDNLGLKSAATMEAQSDIYDRTKGRLAIPGAFGFGCAFLPEDVIRFDTKSDFLAWVRNALPGEYSVAGPYGIIIPDTRFEGVLSIRWTDARPETTEPRYRAKSLTFYGINGPIYHTRYRYWPISRLTDWVKINITTEDIIYRIVASSVRNRWGDPDIGGLIIAAYQGEADGDKVIRLVRGQSYRGSRLGPVGISVPSTPTGTYIASPQFFITGCSEHSLPGSYCALSGVPDAHVSGAMPGLFIRTS | not soluble
3 | MAAAAELRLLEKSLGLKPGNKYSAQGERQIPVLQTNNGPSLMGLSTIATHLVKQASKEHLLGSTAEEKAMVQQWLEFRVTRVDGHSSKEDTQTLLKDLNSYLEDKVYLAGHNITLADILLYYGLHRFIVDLTVQEKEKYLNVSRWFCHIQHYPDIRQHLSSIVFIKNRLYANSH | not soluble
4 | WQENMLIPMMAINEDNLWVHQKYGYAIPRRNGKTEVVYILELWALHKGLKILHTAHRISTSHSSFEKVKKYLEMSGYVDGEDFISNKAKGQERIEFKSSGSVIQFRTRTSNGGLGEGFDLLIIDEAQEYTAEQESALKYTVTDSDNPMTIMCGTPPTMVSTGTVFESYRKECLKGDRRYSGWAEWSVDEMQPIHDVKSWYVANPSMGYHLNERKIEAELGEDEIDHNIQRLGYWPSFNQKSVISEKEWAKLKVEQVPELKSKLFVGIKFGQDGNNVSLSIAARASENKVFVEAIDCLSVRNGTQWIINFLKSADIAKVVVDGASGQELLAQEMREHGLKKPELPKVAEIITANTMWEQGIMQETICHNDQPSLTAVVTNCEKRQIGSNGGFGYKSLYDDRDISLMDSALLAHWICYTTKPKRKQRTSC | not soluble
5 | MLMPRRMKYRKQQRGRLKGATKGGDYVAFGDYGLVALEPAWITAQQIEAARVAMVRHFRRGGKIFIRIFPDKPYTKKPLEVRMGKGKGNVEGYVAVVKPGRVMFEVAGVTEEQAMEALRIAGHKLPIKTKIVRRDAYDEAQ | soluble
6 | MKQQEEHNNKIDLLEKQQAQLKSQLETIQKQQTGIISSTKTLTHVIKSVKDQQNTFIFTEFNPAKTKYFILNNGSVALAGRVLSIDATENGSVIHISLVNLLSTPISNIGFNATWGGEKPVDAKEFARWQQLLFNTSMKSTLKLLPGQWQDINLTLKGVSPNNLGYLKLAINMENIQFDNLPSAENRQKRSKK | not soluble
7 | MMEEYVVIGKVLDTFGLEGELKVRPYAPPEVFENLEKVYLKRKGGDWVPFEVEWVDFIDDKVIIKFKGYDSIDEVEQFKGAKLFLPKEELPELGEEEYYAYELVGMEVETDKGKKLGKVERVQDMGPYDALVLDKENLLVPFVSDIVLKVDKENKKIIVKEELLPVLEHHHHHH | soluble
8 | MHCLSDFIPWNQVSVTGDFVGHIQELIRTEVLPYQWEALNDQIAGAEPSHCLDNFRAAAEKKGHIQFHGQPFQDSDIYKWIEAAAYTLAWHPDSDLEAKADQAIELICGAQQPDGYLNTYFILTGAQRWTHLLDGHELYCAGHLMEAAVAYYHATGKDKLLKAAQKLADHIADVFGTSPGKIPGYPGHPEVELALIRLFEATGNIKYQQLAQYFICQRGASPSIFRKEADQFGWDWADSPFQFQFYQAGKPILEQTELEGHAVRALYLCCGIADVAARTQDAALLETCRRLWEDLTQTKLYITGGAGSSVYGEAFTFAYDLPNDTAYAETCAAVAVCFFAQRMMKISPSGAYGDVLEQALYNGVLSGMALDGKSFFYVNPLEVVPEACQKDQRKKHVKPIRQKWFACACCPPNLARLFASIGGYLHFIRAETLYTNLYVTSTSEFTFQGLPIKLHMDSAYPFDEKIHISLSLPRPMEFSYAVRIPAWCADYHVLINGKICAGTLKDGFLYLHRCWRDGDEVELTLSMPVRVVRANSLVRENIGKSAICRGPIVYCMEQTDNGPQLHRNRICGKPSFTISSGEENLKGLPCISCSGEYLLPDGTQLYTSAKESFQPKTLRFIPYFAWCNRSPGEMAVWVRHDTILEHHHHHH | soluble
9 | MIKNPILRGFNPDPSICRADTDYYIATSTFEWFPGVQIHHSKDLVNWHLVAHPLNRTSLLDMKGNPNSGGIWAPDLSYHDGKFWLIYTDVKVTDGMWKDCHNYLTTCESVDGVWSDPITLNGSGFDASLFHDNDGKKYLVNMYWDQRTYNHNFYGIVLQEYSDKEKKLIGKAKIIYKGTDIKYTEGPHIYHIGDYYYLFTAEGGTTYEHSETVARSKNIDGPYEIDPEYPLLTSWHDPRNSLQKCGHASLVHTHTDEWYLAHLVGRPLPVGNQPVLEQRGYCPLGRETSIQRIEWVDNWPRVVGGKQGSVNVEAPKIPEVKWEKTYDEKDNFDSDKLNINFQSLRIPLTENIASLKAKKGNLRLYGKESLTSTFTQAFIARRWQSFKFDASTSVSFSPDTFQQAAGLTCYYNTENWSTIQVTWNEDKGRVIDIVCCDNFHFDMPLKSNVIPIPKDVEYIHLKVEVRVETYQYSYSFDGINWSKVPAIFESRKLSDDYVQGGGFFTGAFVGINCIDITGNNKPADFDYFCYKEL | soluble
10 | MKAYLHVASGKTFSGELAAPLEEKVSGEIVFFTGMTGYQEVLTDPSYKNQIIVFTYPLIGNYGINENDFESKRPHVEAVVVYEASREGFHYGAKYSLAEYLQHWNIPLLTHVDTRALVKEIRTAGTMMAELSLSPISAVGGEEAVFPVRAVSTKTIETYGEGGPHLVLVDFGYKKSILQSLLARGCRVTVVPHDTTPEAIDALKPDGLVLSNGPGDPKQLRHQLPAIRQLIDRYPTLAICLGHQLVALAYGADTEKLRFGHRGANQPVWDAVKQNVMMTSQNHSYVVKEGSLVGKPFDIRFINVNDGSVEGIVHRHKPILSVQYHPEAHPGPHDTGYIFDEFLQTVFKGENVYA | soluble
11 | MIDPVGLPDTFVRIVLVGSGNLATQTALALSEAASPPVQVWSRNAEHAERLASMLPGATATDRTEELLCDAELYLLAVSDHALESVAATLPPTSGIWAHTAGSMPMDTLRPYHAQIGVFYPLQTFSRERRVDYSSIPIYIEGNDESVVRLLESVARLISRNVLRCTSEQRLYLHLAAVFACNFTNHLYALSEQMLAAHGLPPRSLAPLIAETAAKVQEMSATEAQTGPAKRDDTNTLQKHLGLLNPYPDWQEIYRILSDSIRKMYGPKEQ | not soluble
12 | MGSDKIHHHHHHMKPSGSAICIETAAMTMRFGSFTALDAVSIKVQAGSFHALLGENGAGKSTLVKCIMGFYRQTSGQLLVEDREVEIASPRDAAALGLGMVYQHFTLVPSLTGAENLVISRNAVPAMINWRRERQALNDFMATMPFQIPLERPVRELSAGEKQKLEIIKQLYLGRRFLILDEPTSVLTPAEADDMLGLVRSMTERGALTVLMISHKFHEVRKFADAVSVLRRGKLVGSGRTADLTTQEMAAMMIGDVKLAELDSRLPVVEASPSILSIRGMKTRDRSGLKSIEVDDLKVRAGEIVGIAGISGNGQKELAEVLAGQRPAEAGDITVKDRPYTATRQETRAANVRFIPEEPLLNACAPRMSVAENLSFRDFDVDAKGKTRFWLNAKAMRETAGRLIADFKVKTASPASPIASLSGGNVQRAVLARELTGDVDLLVVSNPCFGLDFSAVAEIRARIMKARNNGSAVLLFSEDLDELMEMSDRIVVMSDGRLVYETPARGADIAVIGAHMAGHA | not soluble
13 | MAAEKKVFVIFDHQEQRHDQPWPSYHIEVPRRLDAILERLNTTKLLTDPRIEHIPRREAEESEILAVHTKRYVDDVKSTETMTVEQQESFCTKYEDIYVNSATWHRAKLAAGASIDLMTSVMAAKRPGIAFIRPPGHHAMPDEGCGFCIFNNVAIAAKAAIQNGQKVLIVDYDVHAGNGTQECVEQMGEGNVQLISIHRYENGHFWPNMPQTGIYHNYKNTINLPLNTIGLTDADYHALFTHIILPTIHAFQPDLLLVSSGFDASIGDPEGSMQVTPAGFATMIRMLIDTGIPVAALLEGGYFLDALAADSEWVLRALLGEEIPRIRVEKIHSAIADTIGRVVKRYEGSCPFFKKVQELRGILGCRVAEEDQQEEATDYTGERTVHPPYETRGIYTPFTEQKVAEFKDQLESILASYTTPPDFSAETEAFHSAIAPHSSEINDFYFGVHEDKILLGTSPAVRLFFELLFTAPYDPKHTIKLYGKVKPEDFGKIELDSRSLGEMKNISIFNNLPIFQL | not soluble
14 | MTEFTLAHLSDPHLPLPPKTSLRHLASKRALGYLNWRRNRHLIHRRDILDTLVADLQAQQPDHIAVTGDLVNIALVNEFAPARQWLESVGPADRVSLVPGNHDAYVRSTAHRFAETFPDYISGDDATPGFPYLRRREAIAIIGVSSAVPTAPLRATGWLGAPQRAALEALLQSLAGERVFKVLLIHHPLQSRSRHKRLTDAADLIALLQRHPVDLVLHGHDHVHATVRIDTPFGAIPVVGVPSASAMNDRHRPSAAYNLFKISEGNDGWRCLEHHHHHH | not soluble
15 | LLLGDEAIAQAALDAGLSGVYAYPGTPSTEITEYIQMAPITSERNIHNRWCANEKTAMEAALGMSFVGKRALVCMKHVGMNVAADCFINSAITGVKGGLIVVAADDPSMHSSQNEQDSRFYGDFSLIPMYEPSNQQEAYDMVYNGFEFSEKIGEPILMRMVTRLAHSRSGVENKAQKPQNEISFSEDPRQFILLPGNARKRYKVLLTRQEEFIKASEESPYNRYIDGPNKKTGIVACGIGYNYLMENYPEGCEYPVLKVGQYPLPKKQLMQLIDACDEILVLEDGQPFVEKQLKGYLGIGLKVKGRLDGTLSQDGELNPDTVARALGKENSSEFNVPNIVEMRPPALCEGCGHRDMYITLTQVLKEEYPTHKVFSDIGCYTLGANAPFNAINSCVDMGASITMAKGASDGGLHPAVAVIGDSTFTHSGMTGLLDCVNENANVTIVISDNETTAMTGGQDSAGTGRLEAICAGLGVDPAHIRVVVPLK | not soluble
16 | MGSDKIHHHHHHMVANPALPEGISDLPAGTLASVVTYLEMKTPPPIKGLETPPGLRLLRHDAPDVEWYCRLYRLVGEDYLWFSRLMWDYATLAAHLASDRVEVWSLQKQGVDLGLLELEWMQDGDCELSFFGLSKELIGAGVGRWLMEHATARAFSREISRFFVHTCTLDSPQALGFYMRSGFVPYGRAVEIAEDPRLTGLIPKTAAAHVPLIQR | not soluble
17 | MRIEVKLLPLKDNPILPFNYNYEVYSQILEKVNSIEPTIAKLLSSPHGFWTFSRIIVRKRKILPDKGIEILSDDVSLYISSSNEDIIRAIAEAVEKSPEFKIGELSFLVGDIKAIKVKELGKENVFSTLSPIVVRTVKFEGNKLRHWDLYPHDELFMDRLRKVMILRYSEVMGETPKDRDFTIEVLKFKPTRLMVGSSYIRGSLMVFRYAGSEEIARFGYENGFGEKTGLGFGMVKLIE | soluble
18 | MSSRYSERNGLSETEKMTLPKVRKRKAQLVDEIEALKNEVREVDEELDQVYYTHPKSKEYHKIVVNGRKKFNQDPWKALDWLASRNVVAKDPQALALWMKAGEGLSKSAIGEILGDNRPFALETLDRFTKEHKLHDVPIVPALRQYLFSFRLPGESQKINRILEKFAEVYANQNPSYGNADQAHTVAYSCIMVNTLLHNPNVKDKPSLEKYIEMNEQLLEKGAITIEQLTEVYESVSVTQFKIPDEVSTSGKGTVNDILLHAEREGWLFKQSSNPLFSGALSWKKRWFVLSENCLYYFDQMTDKEPKGIITLANVGIRKVEAPSRPFMFEIFSLSDGQIKACKTEQDGRLVEGRHSIYKICAVNDEDMRSWINAISRMMAPQQHLLARPKSTH | soluble
